Square brackets hold non-standard residues; d marks the D form. Side chains are listed from the residue outwards. * marks the point of attachment. 5FAM = O=C1OC2(c3ccc(O)cc3Oc3cc(O)ccc32)c2ccc(C(=O)*)cc21; Linker2 = 6-aminohexyl amide linker
Key:
[1] = Stability assay in human plasma (UPLC-FLR); format: in vitro ADME; conditions: 90% human plasma; for stability in human plasma: within 6 h; for remaining at 72 h, 20 nM: human plasma (90%), 37° C., read-out: remaining amount after 72 h of incubation
Protocol: FAM-labeled tri-GalNAc ligands were prepared with sterile water with final concentration of 200 nM. […] At the end of incubations, each mixture was added 300 μl of methanol to quench the reaction. The quenched samples were centrifuged at 20,000×g for 5 min and the supernatant was further filtered with 0.45 μm filters (Merck Millipore) to remove debris. The filtered samples were measured by UPLC-FLR detector (Waters, MA, USA).
5-FAM-CPMB-0013 (ID013), 5-FAM-CPMB-0023 (ID023) and commercialized tri-GalNAC were incubated with 90% of human plasma for different time points. The amount of each ligand was analyzed and quantified by UPLC system.

[2] = Cytotoxicity, viability of HepG2 cells by Cell Counting Kit-8 (CCK-8); format: cell-based; conditions: human, HepG2, 1.5625-50 μM, read-out: survival ratio of cells
Protocol: The cytotoxicity effect of cyclic peptide-tri-GalNAc were evaluated with the viability of HepG2 cells and analyzed by Cell Counting Kit-8 (CCK-8) (Dojindo Laboratories, Japan). The assay was performed according to manufacturer's protocol. Briefly, HepG2 were seeded in 96-well plates with a density of 6×10^4 cells per well and incubated at 37° C. with 5% CO2. As cells reached 70% confluence, medium was changed to MEM with 2% FBS and serial diluted cyclic peptide-tri-GalNAc with final concentration of 50, 25, 12.5, 6.25, 3.125 and 1.5625 μM were treated. After 24 h of treatment, 10 μL of CCK-8 solution was added to each well, and incubated for 1˜4 h at 37° C. The absorbance at 450 nm was measured by microplate reader (Thermo scientific, Multiskan sky, MA, USA). The survival ratio of cells treated with ID013, ID023 and commercialized tri-GalNAC are from 97˜100%.

[3] = target: T1, asialoglycoprotein receptor (ASGPR) on HepG2 cells (human, UniProt P07306 1-291; P07307 1-311); assay: flow cytometry titration on HepG2 cells (% FAM-positive cells, 1.6-200 nM, 24 h)
T1 construct: whole, on cells; also called ASGPR receptor on liver cells
T1 sequence (looked up) 1: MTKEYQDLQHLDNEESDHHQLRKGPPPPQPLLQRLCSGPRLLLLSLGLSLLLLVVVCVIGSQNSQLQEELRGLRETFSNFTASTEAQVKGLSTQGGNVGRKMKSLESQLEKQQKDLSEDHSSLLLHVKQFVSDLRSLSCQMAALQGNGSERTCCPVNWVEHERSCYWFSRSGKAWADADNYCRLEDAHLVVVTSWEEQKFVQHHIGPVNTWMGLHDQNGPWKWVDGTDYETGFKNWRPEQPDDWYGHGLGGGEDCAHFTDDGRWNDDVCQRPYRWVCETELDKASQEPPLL
T1 sequence (looked up) 2: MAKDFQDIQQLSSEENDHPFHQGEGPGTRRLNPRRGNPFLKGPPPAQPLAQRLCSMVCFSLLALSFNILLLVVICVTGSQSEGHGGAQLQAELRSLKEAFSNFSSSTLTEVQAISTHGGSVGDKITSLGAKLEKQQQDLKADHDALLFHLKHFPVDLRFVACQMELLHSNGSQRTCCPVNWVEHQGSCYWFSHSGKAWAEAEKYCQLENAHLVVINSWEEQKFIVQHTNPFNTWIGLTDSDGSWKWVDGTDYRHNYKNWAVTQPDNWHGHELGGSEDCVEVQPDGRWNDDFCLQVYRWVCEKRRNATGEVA
Protocol: Cells were seeded in 24-well plates with a density of 1.5×10⁵ cells per well and incubated under 37° C., 5% CO₂. After 18 h of incubation, media were replaced to MEM with 2% FBS and FAM-labeled ligands were added with final concentrations of 1.6, 8, 40 or 200 nM. After 24 h of incubation, cells were washed twice with 1×PBS and analyzed by LSRFortessa (BD Biosciences, NJ, USA). The binding efficiency was evaluated by the proportion of FAM positive cells.
HepG2 cell was treated by 14 cyclic peptide-tri-GalNAc ligand variants with serial diluted concentration of 1.6, 8, 40 or 200 nM. Commercialized tri-GalNAc used in Givosirna was used as positive control and cyclic peptide w/o tri-GalNAc was negative control. Among 14 variants, 5-FAM-CPMB-0013 (ID013), 5-FAM-CPMB-0023 (ID023) and 5-FAM-CPMB-0035 (ID035) had relatively higher binding ability as compared to others and commercialized tri-GalNAc. Equilibrium dissociation constant (kd) for 5-FAM-CPMB-0013 (ID013), 5-FAM-CPMB-0023 (ID023), 5-FAM-CPMB-0035 (ID035) and commercialized tri-GalNAC were 7.0, 8.6, 5.7 and 18 nM, respectively.

[4] = target: asialoglycoprotein receptor (ASGPR) on HepG2 cells (human) (UniProt P07306); assay: flow cytometry, % FAM-positive HepG2 cells after 24 h with 200 nM ligand; negative control
[5] = target: asialoglycoprotein receptor (ASGPR) on HepG2 cells (human) (UniProt P07306); assay: flow cytometry, % FAM-positive HepG2 cells after 24 h with 8 nM ligand; negative control
[6] = target: asialoglycoprotein receptor (ASGPR) on HepG2 cells (human) (UniProt P07306); assay: flow cytometry, % FAM-positive HepG2 cells after 24 h with 40 nM ligand; negative control
[7] = target: asialoglycoprotein receptor (ASGPR) on HepG2 cells (human) (UniProt P07306); assay: flow cytometry, % FAM-positive HepG2 cells after 24 h with 1.6 nM ligand; negative control

Molecule: CC(=O)N[C@H]1[C@H](OCCCC(=O)NCCCC[C@@H]2NC(=O)CNC(=O)[C@H](CCCCNC(=O)CCCO[C@@H]3O[C@H](CO)[C@H](O)[C@H](O)[C@H]3NC(C)=O)NC(=O)[C@H](CCC(=O)NCCCCCCNC(=O)c3ccc4c(c3)C(=O)OC43c4ccc(O)cc4Oc4cc(O)ccc43)NC(=O)[C@H](CCCCNC(=O)CCCO[C@@H]3O[C@H](CO)[C@H](O)[C@H](O)[C@H]3NC(C)=O)NC(=O)CNC2=O)O[C@H](CO)[C@H](O)[C@@H]1O [5-FAM-CPMB-0013]
- stability in human plasma [1]: highly stable
- remaining at 72 h, 20 nM [1]: 92.7%
- viability at 24 h [2]: 97 to 100%

Molecule: CC(=O)N[C@H]1[C@H](OCCCC(=O)NCCCC[C@H]2NC(=O)CNC(=O)[C@@H](CCCCNC(=O)CCCO[C@@H]3O[C@H](CO)[C@H](O)[C@H](O)[C@H]3NC(C)=O)NC(=O)[C@@H](CCC(=O)NCCCCCCNC(=O)c3ccc4c(c3)C(=O)OC43c4ccc(O)cc4Oc4cc(O)ccc43)NC(=O)[C@@H](CCCCNC(=O)CCCO[C@@H]3O[C@H](CO)[C@H](O)[C@H](O)[C@H]3NC(C)=O)NC(=O)CNC2=O)O[C@H](CO)[C@H](O)[C@@H]1O [5-FAM-CPMB-0023]
- stability in human plasma [1]: highly stable
- remaining at 72 h, 20 nM [1]: 85.8%
- viability at 24 h [2]: 97 to 100%

B1: 5-FAM-CPMB-0013 (peptide)
peptide: KEKGKG
modifications: head-to-tail cyclic; each Lys side chain carries GalNAc via linker Gal-3; Glu side chain carries Linker2 (6-aminohexyl amide) with 5-FAM
notes: also called ID013
- Kd [3]: 7 nM

B2: 5-FAM-CPMB-0031-Ac (negative control) (peptide)
peptide: cyclo(K[dE]([Linker2-5FAM])KGKG)
modifications: also: Lys side chains: Gal-1 with suffix -Ac per table, 'w/o tri-GalNAc' per text
- Efficiency (%) (proportion of FAM positive cells) [4]: 0.4%
- Efficiency (%) (proportion of FAM positive cells) [5]: 0.1%
- Efficiency (%) (proportion of FAM positive cells) [6]: 0.2%
- Efficiency (%) (proportion of FAM positive cells) [7]: 0.1%

Reference: patent US20240218023A1, “CYCLIC PEPTIDE-N-ACETYLGALACTOSAMINE (GALNAC) CONJUGATES FOR DRUG DELIVERY TO LIVER CELLS” (MICROBIO (SHANGHAI) CO., LTD., priority 2021, published 2024)
